In article doi:10.1101/2021.07.22.453368:

Key:
[1] = molecular target: human Nogo 66 receptor 1 (human) (UniProt Q9BZR6); assay: flow cytometry on cells
[2] = molecular target: junctional adhesion molecule-A (human) (UniProt Q9Y624); assay: flow cytometry on cells
Chain of UniProt Q9Y624 (Q9Y624 28-299): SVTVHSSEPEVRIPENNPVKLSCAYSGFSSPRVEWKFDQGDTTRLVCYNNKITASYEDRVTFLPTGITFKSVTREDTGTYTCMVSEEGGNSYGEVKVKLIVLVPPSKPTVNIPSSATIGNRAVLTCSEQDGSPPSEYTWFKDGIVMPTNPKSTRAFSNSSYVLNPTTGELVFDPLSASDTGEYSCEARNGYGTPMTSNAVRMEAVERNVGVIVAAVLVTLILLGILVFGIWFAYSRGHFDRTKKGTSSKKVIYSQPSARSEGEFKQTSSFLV

Chain of UniProt Q9BZR6 (Q9BZR6 27-447): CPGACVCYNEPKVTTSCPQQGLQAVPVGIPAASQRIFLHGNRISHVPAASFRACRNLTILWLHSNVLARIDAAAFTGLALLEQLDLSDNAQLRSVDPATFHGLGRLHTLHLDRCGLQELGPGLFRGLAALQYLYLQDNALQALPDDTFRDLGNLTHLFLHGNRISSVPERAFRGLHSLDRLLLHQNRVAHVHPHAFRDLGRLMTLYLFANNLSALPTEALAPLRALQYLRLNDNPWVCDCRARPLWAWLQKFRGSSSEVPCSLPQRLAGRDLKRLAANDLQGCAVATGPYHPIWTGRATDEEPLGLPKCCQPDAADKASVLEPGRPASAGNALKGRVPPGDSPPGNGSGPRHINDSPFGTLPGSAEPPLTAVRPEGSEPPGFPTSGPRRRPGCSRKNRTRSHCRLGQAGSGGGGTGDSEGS

**Q.** reovirus T3SA- virions (complex) was tested. Which percent of receptor-expressing cells bound by reovirus [1] did it give?
**A.** The percent of receptor-expressing cells bound by reovirus was > 50%.

**Q.** What about the percent of receptor-expressing cells bound by reovirus [2] of the same substance?
**A.** Its percent of receptor-expressing cells bound by reovirus is > 50%.
